This is an account of results in IntAct's records for PubMed 17003112.

The chains are these.
B1: Nuclear factor NF-kappa-B p105 subunit (Homo sapiens), P19838 (parent)
chain: MAEDDPYLGRPEQMFHLDPSLTHTIFNPEVFQPQMALPTDGPYLQILEQPKQRGFRFRYVCEGPSHGGLPGASSEKNKKSYPQVKICNYVGPAKVIVQLVTNGKNIHLHAHSLVGKHCEDGICTVTAGPKDMVVGFANLGILHVTKKKVFETLEARMTEACIRGYNPGLLVHPDLAYLQAEGGGDRQLGDREKELIRQAALQQTKEMDLSVVRLMFTAFLPDSTGSFTRRLEPVVSDAIYDSKAPNASNLKIVRMDRTAGCVTGGEEIYLLCDKVQKDDIQIRFYEEEENGGVWEGFGDFSPTDVHRQFAIVFKTPKYKDINITKPASVFVQLRRKSDLETSEPKPFLYYPEIKDKEEVQRKRQKLMPNFSDSFGGGSGAGAGGGGMFGSGGGGGGTGSTGPGYSFPHYGFPTYGGITFHPGTTKSNAGMKHGTMDTESKKDPEGCDKSDDKNTVNLFGKVIETTEQDQEPSEATVGNGEVTLTYATGTKEESAGVQDNLFLEKAMQLAKRHANALFDYAVTGDVKMLLAVQRHLTAVQDENGDSVLHLAIIHLHSQLVRDLLEVTSGLISDDIINMRNDLYQTPLHLAVITKQEDVVEDLLRAGADLSLLDRLGNSVLHLAAKEGHDKVLSILLKHKKAALLLDHPNGDGLNAIHLAMMSNSLPCLLLLVAAGADVNAQEQKSGRTALHLAVEHDNISLAGCLLLEGDAHVDSTTYDGTTPLHIAAGRGSTRLAALLKAAGADPLVENFEPLYDLDDSWENAGEDEGVVPGTTPLDMATSWQVFDILNGKPYEPEFTSDDLLAQGDMKQLAEDVKLQLYKLLEIPDPDKNWATLAQKLGLGILNNAFRLSPAPSKTLMDNYEVSGGTVRELVEALRQMGYTEAIEVIQAASSPVKTTSQAHSLPLSPASTRQQIDELRDSDSVCDSGVETSFRKLSFTESLTSGASLLTLNKMPHDYGQEGPLEGKI

Variants of B1 are the subject of the test. To be noted: with hif1n_human HIF1AN.
As for N678A, the “effect of a mutation on the interaction” value is on record as “disrupting interaction strength”.
